Key:
[1] = molecular target: the molecule itself
soluble human Tie2-Fc = soluble human Tie2-Fc (human, UniProt Q02763); experiment: ELISA
soluble human Tie2-Fc, sequence (Q02763 23-748): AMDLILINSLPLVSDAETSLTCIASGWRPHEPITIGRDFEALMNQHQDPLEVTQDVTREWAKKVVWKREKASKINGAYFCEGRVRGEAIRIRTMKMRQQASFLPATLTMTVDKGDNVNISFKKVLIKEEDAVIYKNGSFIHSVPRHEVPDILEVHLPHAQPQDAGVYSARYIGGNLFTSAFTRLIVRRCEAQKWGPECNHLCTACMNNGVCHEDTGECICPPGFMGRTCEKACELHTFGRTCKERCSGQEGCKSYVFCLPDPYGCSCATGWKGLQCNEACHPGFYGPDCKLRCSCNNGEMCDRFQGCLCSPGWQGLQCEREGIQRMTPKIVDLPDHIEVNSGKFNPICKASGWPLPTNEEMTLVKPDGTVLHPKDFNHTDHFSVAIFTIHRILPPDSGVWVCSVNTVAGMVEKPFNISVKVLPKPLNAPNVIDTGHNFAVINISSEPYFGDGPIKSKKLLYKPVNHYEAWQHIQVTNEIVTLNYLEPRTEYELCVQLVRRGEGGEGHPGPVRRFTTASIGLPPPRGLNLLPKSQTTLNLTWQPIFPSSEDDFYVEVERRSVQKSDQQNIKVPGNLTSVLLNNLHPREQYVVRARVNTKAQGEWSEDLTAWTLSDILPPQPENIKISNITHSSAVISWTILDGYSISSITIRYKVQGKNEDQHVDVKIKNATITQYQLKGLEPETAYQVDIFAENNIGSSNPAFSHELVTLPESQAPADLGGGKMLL

Row | binding result (soluble human Tie2-Fc) | Binder | stoichiometry N [1]
1 | – | His-tagged Ang2 prepared in-house (Zyngenia) (ligand) YNNFRKSMDSIGKKQYQVQHGSCSYTFLLPEMDNCRSSSSPYVSNAVQRDAPLEYDDSVQRLQVLENIMENNTQWLMKLENYIQDNMKKEMVEIQQNAVQNQTAVMIEIGTNLLNQTAEQTRKLTDVEAQVLNQTTRLELQLLEHSLSTNKLEKQILDQTSEINKLQDKNSFLEKKVLAMEDKHIIQLQSIKEEKDQLQVLVSKQNSIIEELEKKIVTATVNNSVLQKQQHDLMETVNNLLTMMSTSNSAKDPTVAKEEQISFRDCAEVFKSGHTTNGIYTLTFPNSTEEIKAYCDMEAGGGGWTIIQRREDGSVDFQRTWKEYKVGFGNPSGEYWLGNEFVSQLTNQQRYVLKIHLKDWEGNEAYSLYEHFYLSSEELNYRIHLKGLTGTAGKISSISQPGNDFSTKDGDNDKCICKCSQMLTGGWWFDACGPSNLNGMYYPQRQNTNKFNGIKWYYWKGSGYSLKATTMMIRPADF | 2
2 | binds | Recombinant human Ang2 (R&D Systems) (ligand) YNNFRKSMDSIGKKQYQVQHGSCSYTFLLPEMDNCRSSSSPYVSNAVQRDAPLEYDDSVQRLQVLENIMENNTQWLMKLENYIQDNMKKEMVEIQQNAVQNQTAVMIEIGTNLLNQTAEQTRKLTDVEAQVLNQTTRLELQLLEHSLSTNKLEKQILDQTSEINKLQDKNSFLEKKVLAMEDKHIIQLQSIKEEKDQLQVLVSKQNSIIEELEKKIVTATVNNSVLQKQQHDLMETVNNLLTMMSTSNSAKDPTVAKEEQISFRDCAEVFKSGHTTNGIYTLTFPNSTEEIKAYCDMEAGGGGWTIIQRREDGSVDFQRTWKEYKVGFGNPSGEYWLGNEFVSQLTNQQRYVLKIHLKDWEGNEAYSLYEHFYLSSEELNYRIHLKGLTGTAGKISSISQPGNDFSTKDGDNDKCICKCSQMLTGGWWFDACGPSNLNGMYYPQRQNTNKFNGIKWYYWKGSGYSLKATTMMIRPADF | –
